Results as given in patent US12012446B2, “Epstein-Barr virus antibodies and uses thereof” (priority 2017, dated 2024).

B1: m72A1: EBV anti-gp350 neutralizing mouse antibody purified from HB168 hybridoma (ATCC); SEQ ID NO: 100 / 101 (antibody, V domains shown)
VH: PELVKPGTSMKISCKASGSSFTDYTMNWMKQSHGKNLEWIGLINPYNGGTRYNQKFKGKATLTLDKSSSTAYMEVLSLTSEDSAVYYCAGGLRRVNWFAYWGQGTLVSVSAAKTTPPSVYPLAPGSAAQTNSMVTLG
VL: QAVLTQESALTTSPGETVTLTCRSSTGAVTTSNYANWVQEKPDHLFTGLIGGTNNRVPGVPARFSGSLIGDKAALTITGAQTEDEAIYFCVLWHSNHWVFGGGTKLTVL
modifications: heavy chain mAb 72A1; light chain mAb 72A1
B2: h72A1: humanized 72A1 IgG1; heavy and light chain SEQ ID NOs: 180 and 181 (antibody, V domains shown)
VH: EVQLVESGGGLVQPGGSLRLSCAASGSSFTDYTMNWMRQSPGKGLEWIGLINPYNGGTRYADSVKGRATLSLDKSKNTAYLQMNSLRAEDTAIYYCAGGLRRVNWFAYWGQGTLVTVSS
VL: DAQLTQSPILLSASVGDRVTITCRSSTGAVTTSNYANWVQERTNGSFRGLIGGTNNRVPGVPSRFSGSLSGDDATLTISSLQPEDEADYFCVLWHSNHWVFGAGTKVEIKR

Columns and labels:
EBV [1] = conditions: SCID mice with PBMC from EBV-naïve donors; cited from earlier work
EBV [2] = conditions: small phase 1 clinical trial; cited from earlier work
[3] = target: T1, EBV gp350 20-mer linear peptides (gp350 regions) (Epstein-Barr virus, UniProt P03200); type: binding
T1 construct: purchased GenicBio; host or cells: chemical solid-phase synthesis
T1 sequence (P03200 142-161): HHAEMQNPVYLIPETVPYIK
Description: Forty-five sequential 20-mer linear peptides, covering the whole sequence of gp350 (GenBank: NC_007605.1), with an exception of aa 862-881, were synthesized using a solid phase method and cleaved using a low-high hydrogen fluoride method by the GenicBio, as previously described (58).
The binding of anti-gp350 mAbs to 45 synthesized 20-mer sequential peptides covering the total length of gp350 was analyzed using indirect ELISA as described (58). Briefly, immunoplates were coated with 50 μl of 10 μg/ml EBV gp350 peptides (forty-five 20-mers) diluted in PBS and incubated overnight at 4° C.; 0.5 μg/ml recombinant EBV gp350 ectodomain protein was used as a positive control. After washing three times with washing buffer (PBS containing 0.05% (v/v) Tween 20), plates were blocked with 100 μl washing buffer containing 3% BSA (blocking buffer), incubated for 1 hour at room temperature, and washed as above. Ten μg/ml purified mAbs were added to each well in triplicate and incubated for 2 hours at room temperature. […] The plates were washed as described above, followed by incubation with goat anti-mouse IgG or goat anti-human IgG HRP-conjugated secondary antibody (1:2,000 diluted in PBS) at room temperature for 1 hour. The plates were washed again and the chromogenic substrate ABTS was added. The reaction was stopped using ABTS peroxidase stop solution. The absorbance was read at an optical density of 405 nm using an ELISA plate reader.
The peptide library, consisting of 20-mer peptides, covered the entire gp350 protein, with the exception of AA 862-881 (Table 9).
Purified recombinant gp350 ectodomain was used as a control to validate the binding activity for all of the antibodies used. The overall gp350 sequence was divided into nine different regions consisting of ˜100 AA (FIG. 7).

goat anti-human IgG = assay: ELISA for reactivity to anti-human IgG (HAMA testing); type: binding; conditions: 10 μg/ml antibody on gp350-coated plates
Source text: ClustalW alignment of heavy chain (i) and light chain (ii) variable region amino acid sequences. Murine 72A1 heavy chain and light chain AA sequences are represented by SEQ ID NOs: 178 and 179, respectively, and humanized 72A1 heavy chain and light chain AA sequences are represented by SEQ ID NOs: 180 and 181, respectively. Regions of identical sequence are represented by *. Regions of similarity are represented by :. […] FIG. 4C: ELISA determining the reactivity of humanized 72A1 to murine IgG. Soluble EBV gp350 protein was used as the target antigen at 0.5 μg/ml. […] Bound antibodies were detected using HRP-conjugated anti-mouse IgG or anti-human IgG (1:2,000). […] Unstained cells and cells stained with secondary goat anti-mouse or anti-human conjugated to AF488 alone were used as negative controls.
ELISA was performed to determine the reactivity of chimeric and humanized antibodies to murine IgG. Soluble EBV gp350 or gH/gL protein was used as the target antigen at 0.5 μg/ml. […] Bound antibodies were detected using HRP-conjugated anti-mouse IgG or anti-human IgG (1:2,000). […] To determine whether chimeric and humanized anti-gp350 retained the ability to recognize linear epitopes on gp350, lysate from CHO WT cells and CHO cell stably expressing gp350 were analyzed by western blot analysis.

| Molecule | protection against EBV and development of EBV+ tumors or PTLD-like lesions (EBV [1]) | patients developing a hypersensitivity reaction (EBV [2]) | patients who developed human anti-mouse Abs (HAMA) (EBV [2]) | short-term protection against acquiring EBV after transplantation (EBV [2]) | recognition of gp350 peptides of the principal neutralizing epitope (142-161) [3] | reactivity to goat anti-human IgG over the background (goat anti-human IgG) |
| --- | --- | --- | --- | --- | --- | --- |
| B1 | completely protected | one | all 4 | 3 out of 4 | – | – |
| B2 | – | – | – | – | recognized both native gp350 as well as gp350 peptides that constitute the principal gp350 neutralizing epitope (142-161) | 2100 fold |
